Assay results taken from paper PMC8960383, “A Nanobody-Based Toolset to Monitor and Modify the Mitochondrial GTPase Miro1” (Frontiers in Molecular Biosciences, 2022).

B1: Fbox-M41 (VHH)
VHH: EVQLVESGGGLVHPGGSLRISCAASGFSFNSSAMSWARQAPGKGLEWVSGIQADGTTGYAHSVKGRFNISRDNAKNIVYLQMSSLKPEDSAVYYCAKEGWSTVVFGSRDYWGQGTQVTVSS
B2: M41 chromobody (VHH)
VHH: EVQLVESGGGLVHPGGSLRISCAASGFSFNSSAMSWARQAPGKGLEWVSGIQADGTTGYAHSVKGRFNISRDNAKNIVYLQMSSLKPEDSAVYYCAKEGWSTVVFGSRDYWGQGTQVTVSS
notes: as the VHH of m10 (M41); cloned into the plasmid described as PCNA-chromobody (Panza et al., 2015); also called M41-Cb; source: HeLa, transfected, in living cells
B3: Miro1-specific nanobody M41 (VHH)
VHH: EVQLVESGGGLVHPGGSLRISCAASGFSFNSSAMSWARQAPGKGLEWVSGIQADGTTGYAHSVKGRFNISRDNAKNIVYLQMSSLKPEDSAVYYCAKEGWSTVVFGSRDYWGQGTQVTVSS
notes: Cloned into pHEN6C; also called M41-Nb; M41 nanotrap; source: E. coli, purified (IMAC, SEC)
B4: Miro1-specific nanobody M189 (VHH)
VHH: EVQLVESGGGLVQPGGSLRLSCTASGFPVSSAAMSWARQSPGKELEWVSGIYTDGSADYADSLKGRFTISRDDVENTINLQMNNLKPEDTAIYYCNANFFEGSWYDYWGQGSPVTVSS
notes: Cloned into pHEN6C; also called M189-Nb; M189 nanotrap; source: E. coli, purified (IMAC, SEC)
B5: Miro1-specific nanobody M85 (VHH)
VHH: DVQLVESGGGKVQSGGSLRLSCAASGSKLDDYSIGWFRQAPGKGREGISCITMKTGSFEYVDSVKGRFTISADNAKNTVHLQMNNLKPEDTGIYYCAALRSRGLFCVTSPYEYDLWGQGSPVTVSS
notes: Cloned into pHEN6C; also called M85-Nb; M85 nanotrap; source: E. coli, purified (IMAC, SEC)
B6: M85 chromobody (VHH)
VHH: DVQLVESGGGKVQSGGSLRLSCAASGSKLDDYSIGWFRQAPGKGREGISCITMKTGSFEYVDSVKGRFTISADNAKNTVHLQMNNLKPEDTGIYYCAALRSRGLFCVTSPYEYDLWGQGSPVTVSS
notes: as the VHH of m11 (M85); cloned into the plasmid described as PCNA-chromobody (Panza et al., 2015); also called M85-Cb; source: HeLa, transfected, in living cells
B7: Fbox-M114 (VHH)
VHH: EVQLQESGGGLVQPGGSLRLSCTASGFPVSSAAMSWARQSPGKELEWVSGIYTDGSADYADSLKGRFTISRDDVENTINLQMNSLKPEDTAVYYCKTDWWAGPSGYVAVWGQGTLVTVSS
B8: Miro1-specific nanobody M114 (VHH)
VHH: EVQLQESGGGLVQPGGSLRLSCTASGFPVSSAAMSWARQSPGKELEWVSGIYTDGSADYADSLKGRFTISRDDVENTINLQMNSLKPEDTAVYYCKTDWWAGPSGYVAVWGQGTLVTVSS
notes: Cloned into pHEN6C; also called M114-Nb; M114 nanotrap; source: E. coli, purified (IMAC, SEC)
B9: M114 chromobody (VHH)
VHH: EVQLQESGGGLVQPGGSLRLSCTASGFPVSSAAMSWARQSPGKELEWVSGIYTDGSADYADSLKGRFTISRDDVENTINLQMNSLKPEDTAVYYCKTDWWAGPSGYVAVWGQGTLVTVSS
notes: as the VHH of m12 (M114); cloned into the plasmid described as PCNA-chromobody (Panza et al., 2015); also called M114-Cb; M114-CB; source: HeLa, transfected, in living cells
B10: Miro1-specific nanobody M11 (VHH)
VHH: QVQLVESGGGSVQPGGSLRLSCAASGFSFSSNVMSWARQAPGKGLEWVSGIYVDGRTHYADSVKGRFTISRDNAKNTVYLQMNSLKPEDTAVYYCAAAGDLSGYSFSPYDYDYWGQGTQVTVSS
notes: Cloned into pHEN6C; also called M11-Nb; M11 nanotrap; source: E. coli, purified (IMAC, SEC)

Key:
GFP-Miro1 (human) = GFP-Miro1 (human) (UniProt Q8IXI2)
[1] = target: endogenous Miro1 (human (endogenous in HEK293 and HeLa)) (UniProt Q8IXI2)
eGFP-cGTPase-TMD [2] = target: T1, eGFP-cGTPase-TMD (Homo sapiens, UniProt Q8IXI2); assay: live-cell fluorescence imaging (relocalisation of the chromobody); TagRFP chromobodies transiently co-expressed with GFP-Miro1 or GFP-tagged Miro1 deletion constructs in HeLa cells; conditions: partners not purified
T1 construct: human Miro1 isoform 1 (UniProtKB Q8IXI2-1), C-terminal GTPase domain with the transmembrane domain; made from the GFP-Miro1 plasmid by site directed mutagenesis; also called C-terminal GTPase domain of Miro1; source: HEK293, transfected, in lysate; HeLa, transfected, in living cells; not shown: GFP, N-terminal, kept

eGFP-cGTPase-TMD [3] = target: T1, eGFP-cGTPase-TMD; assay: pull-down; Nbs coupled to NHS-Sepharose (nanotraps) incubated 16 h at 4°C with the soluble fraction of HEK293 cells transiently expressing GFP-Miro1, GFP-tagged Miro1 deletion constructs or GFP (lysis buffer with 1% Triton X-100); immunoblot of bound fractions with anti-GFP and anti-GAPDH; conditions: one partner purified
Miro1 isoform 2 = target: T2, Miro1 isoform 2 (Homo sapiens (endogenous, HEK293), UniProt Q8IXI2-2); assay: affinity purification with mass spectrometry; mono- and bivalent M41 and M114 nanotraps incubated with HEK293 lysate, compared to control nanotraps; three technical replicates; label-free quantification, iBAQ; conditions: one partner purified
T2 construct: endogenous human Miro1 isoform 2, identified by mass spectrometry (search against the Uniprot Homo sapiens database; one unique peptide); source: endogenous, HEK293 lysate

Miro1 isoform 3 = target: T3, Miro1 isoform 3 (Homo sapiens (endogenous, HEK293), UniProt Q8IXI2-3); assay: as above; conditions: one partner purified
T3 construct: endogenous human Miro1 isoform 3, identified by mass spectrometry (search against the Uniprot Homo sapiens database; 31 razor peptides); source: endogenous, HEK293 lysate
T3 sequence (Q8IXI2 other isoform, or with tags, fused parts or gaps): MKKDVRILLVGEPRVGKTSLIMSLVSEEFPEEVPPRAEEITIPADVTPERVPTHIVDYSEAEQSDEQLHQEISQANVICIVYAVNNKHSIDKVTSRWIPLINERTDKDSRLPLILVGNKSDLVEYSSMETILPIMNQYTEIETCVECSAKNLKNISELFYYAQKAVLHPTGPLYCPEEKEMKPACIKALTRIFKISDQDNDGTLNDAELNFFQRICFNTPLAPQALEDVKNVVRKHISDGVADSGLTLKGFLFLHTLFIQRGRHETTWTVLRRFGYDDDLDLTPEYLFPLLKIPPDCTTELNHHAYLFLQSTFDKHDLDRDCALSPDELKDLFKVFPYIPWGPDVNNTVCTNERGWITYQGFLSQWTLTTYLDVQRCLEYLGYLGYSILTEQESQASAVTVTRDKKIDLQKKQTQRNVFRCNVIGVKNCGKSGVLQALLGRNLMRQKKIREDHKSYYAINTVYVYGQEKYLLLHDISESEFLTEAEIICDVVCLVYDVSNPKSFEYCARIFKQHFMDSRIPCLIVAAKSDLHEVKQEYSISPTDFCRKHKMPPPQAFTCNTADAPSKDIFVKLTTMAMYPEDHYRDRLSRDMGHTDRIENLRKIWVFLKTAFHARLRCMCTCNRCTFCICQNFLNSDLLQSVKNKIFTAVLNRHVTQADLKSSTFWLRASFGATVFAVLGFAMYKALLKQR

T1 sequence (Q8IXI2 whole entry, looked up, the tested form may be a part, canonical isoform): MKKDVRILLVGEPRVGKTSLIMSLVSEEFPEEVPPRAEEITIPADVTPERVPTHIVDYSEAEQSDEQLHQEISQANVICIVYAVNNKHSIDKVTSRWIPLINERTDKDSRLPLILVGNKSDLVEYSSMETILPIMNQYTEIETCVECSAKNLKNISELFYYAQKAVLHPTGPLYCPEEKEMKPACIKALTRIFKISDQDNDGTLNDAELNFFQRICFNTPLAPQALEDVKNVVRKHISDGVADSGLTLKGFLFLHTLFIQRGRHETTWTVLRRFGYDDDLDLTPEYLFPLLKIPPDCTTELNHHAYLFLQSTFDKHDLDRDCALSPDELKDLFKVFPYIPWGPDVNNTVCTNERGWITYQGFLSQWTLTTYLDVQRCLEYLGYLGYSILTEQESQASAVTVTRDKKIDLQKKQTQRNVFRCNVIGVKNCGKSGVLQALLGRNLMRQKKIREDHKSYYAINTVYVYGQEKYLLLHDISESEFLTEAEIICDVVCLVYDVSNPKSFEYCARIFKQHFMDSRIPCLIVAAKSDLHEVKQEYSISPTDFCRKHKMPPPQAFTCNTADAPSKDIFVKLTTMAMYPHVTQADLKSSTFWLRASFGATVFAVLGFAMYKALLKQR
Sequence of endogenous Miro1 (human (endogenous in HEK293 and HeLa)) (Q8IXI2 whole entry): as the sequence (Q8IXI2 whole entry, looked up, the tested form may be a part, canonical isoform) above
Sequence of GFP-Miro1 (human) (Q8IXI2 whole entry): as the sequence (Q8IXI2 whole entry, looked up, the tested form may be a part, canonical isoform) above
T2 sequence (Q8IXI2 other isoform, or with tags, fused parts or gaps): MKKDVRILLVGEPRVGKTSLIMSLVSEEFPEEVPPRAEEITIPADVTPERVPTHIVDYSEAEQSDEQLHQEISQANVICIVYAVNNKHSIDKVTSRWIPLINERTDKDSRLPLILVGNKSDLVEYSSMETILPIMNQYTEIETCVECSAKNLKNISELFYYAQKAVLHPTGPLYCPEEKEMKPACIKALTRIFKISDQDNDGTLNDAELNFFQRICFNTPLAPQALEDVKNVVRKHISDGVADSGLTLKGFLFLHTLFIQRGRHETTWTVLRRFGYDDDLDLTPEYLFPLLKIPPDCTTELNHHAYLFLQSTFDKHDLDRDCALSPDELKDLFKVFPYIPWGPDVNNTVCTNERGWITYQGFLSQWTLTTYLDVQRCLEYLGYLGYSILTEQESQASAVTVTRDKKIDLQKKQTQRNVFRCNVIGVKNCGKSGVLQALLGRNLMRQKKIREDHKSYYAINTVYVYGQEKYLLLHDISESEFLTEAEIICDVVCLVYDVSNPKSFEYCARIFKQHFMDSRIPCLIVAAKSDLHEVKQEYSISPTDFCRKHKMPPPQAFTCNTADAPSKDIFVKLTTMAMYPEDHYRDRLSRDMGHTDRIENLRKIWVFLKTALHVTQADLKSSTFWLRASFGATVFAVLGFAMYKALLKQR

| Binder | binding result (eGFP-cGTPase-TMD [2]) | binding result (eGFP-cGTPase-TMD [3]) | other results |
| --- | --- | --- | --- |
| B1 | – | – | reduction of the GFP signal in HeLa cells coexpressing the Fbox-Nb construct and GFP-Miro1 (targeted degradation) (GFP-Miro1 (human)): 50%; decrease of the anti-Miro1 IF signal in HeLa cells 24 h after transfection of the Fbox-Nb (targeted degradation of endogenous Miro1; Fbox-NR control less than ∼4%) [1]: 16% |
| B2 | binds | – | – |
| B3 | – | binds | – |
| B4 | – | binds | – |
| B5 | – | binds | – |
| B6 | binds | – | – |
| B7 | – | – | reduction of the GFP signal in HeLa cells coexpressing the Fbox-Nb construct and GFP-Miro1 (targeted degradation) (GFP-Miro1 (human)): 80%; decrease of the anti-Miro1 IF signal in HeLa cells 24 h after transfection of the Fbox-Nb (targeted degradation of endogenous Miro1; Fbox-NR control less than ∼4%) [1]: 30% |
| B8 | – | binds | binding result (Miro1 isoform 2): binds; binding result (Miro1 isoform 3): binds |
| B9 | binds | – | – |
| B10 | – | binds | – |
